Assay [1] has as its target T1, GST-MINT1 PDZ domains 1, 2, Q02410.
T1 chain: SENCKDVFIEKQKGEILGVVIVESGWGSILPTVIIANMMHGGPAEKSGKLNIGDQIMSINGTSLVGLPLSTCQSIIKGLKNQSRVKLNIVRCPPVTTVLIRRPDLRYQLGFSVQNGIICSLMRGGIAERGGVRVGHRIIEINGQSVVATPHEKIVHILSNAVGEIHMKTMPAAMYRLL
Put plainly: G assay titration, PDZ 2 ug/ml.

In assay [2] the target is T2, GST-FLJ 10324 PDZ domain 1 [GST: P08515].
T2 chain: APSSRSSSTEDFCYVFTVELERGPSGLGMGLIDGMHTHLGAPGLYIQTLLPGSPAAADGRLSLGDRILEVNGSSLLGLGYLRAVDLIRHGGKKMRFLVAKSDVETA
As to the kind of experiment: G assay titration, PDZ 1 ug/ml.

The target in assay [3] is T3, GST-NOS1 PDZ domain 1 (Homo sapiens (Human)), P29475.
T3 chain: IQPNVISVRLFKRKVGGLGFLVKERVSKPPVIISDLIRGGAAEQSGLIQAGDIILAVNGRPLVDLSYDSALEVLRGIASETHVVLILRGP
As to the kind of experiment: G' assay. Also: key of the grades not given here.

In assay [4] the target is T4, GST-MUPP1 PDZ domain 9 (Homo sapiens (Human)), O75970.
T4 chain: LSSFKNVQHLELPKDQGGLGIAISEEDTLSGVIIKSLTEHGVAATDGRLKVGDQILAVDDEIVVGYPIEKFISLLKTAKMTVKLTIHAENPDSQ
Put plainly: G' assay. Also: key of the grades not given here.

Assay [5] addresses T5, GST-ZO-1 PDZ domain 1 (Rattus norvegicus (Rat)), A0A0G2.
T5 chain: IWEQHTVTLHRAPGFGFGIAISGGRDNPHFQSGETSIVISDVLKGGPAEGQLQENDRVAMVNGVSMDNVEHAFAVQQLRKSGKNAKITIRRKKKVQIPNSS
As to the kind of experiment: G' assay. Also: key of the grades not given here.

Assay [6] has as its target T6, GST-AIPC PDZ domain 1 (Homo sapiens (Human)), O15018.
T6 chain: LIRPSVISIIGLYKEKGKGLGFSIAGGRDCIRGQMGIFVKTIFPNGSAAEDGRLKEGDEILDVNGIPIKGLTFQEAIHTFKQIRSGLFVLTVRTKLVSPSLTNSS
Put plainly: G' assay. Also: key of the grades not given here.

For assay [7], the target named is T7, GST-KIAA0561 PDZ domain 1 (Homo sapiens (Human)), O60307.
T7 chain: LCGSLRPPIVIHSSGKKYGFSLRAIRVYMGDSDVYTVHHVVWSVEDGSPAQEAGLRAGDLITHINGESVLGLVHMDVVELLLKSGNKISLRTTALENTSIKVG
Put plainly: G' assay. Also: key of the grades not given here.

Assay [8] addresses T8, GST-AF6 PDZ domain 1 (Homo sapiens (Human)), P55196.
T8 chain: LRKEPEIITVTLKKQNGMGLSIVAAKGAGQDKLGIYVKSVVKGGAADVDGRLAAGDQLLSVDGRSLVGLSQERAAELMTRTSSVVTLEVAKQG
Put plainly: G' assay. Also: key of the grades not given here.

Assay [9] deals with GST-Atrophin-1 Interacting Protein PDZ domain 5 (Rattus norvegicus (Rat)), O88382. Put plainly: G' assay. Also: key of the grades not given here.
Chain of GST-Atrophin-1 Interacting Protein PDZ domain 5 (Rattus norvegicus (Rat)), O88382 (O88382 1128-1225): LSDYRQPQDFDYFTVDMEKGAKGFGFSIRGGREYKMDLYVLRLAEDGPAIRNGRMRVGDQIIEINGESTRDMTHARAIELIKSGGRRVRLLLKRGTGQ
For assay [10], the target named is T9, GST-DVL2 PDZ domain 1 (Homo sapiens (Human)), O14641.
T9 chain: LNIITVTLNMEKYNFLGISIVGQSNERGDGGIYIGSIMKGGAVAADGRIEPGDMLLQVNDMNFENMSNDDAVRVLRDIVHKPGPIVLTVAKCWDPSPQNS
As to the kind of experiment: G' assay.

For assay [11], the target named is T10, GST-INADL PDZ domain 3 (Homo sapiens (Human)), Q8NI35.
T10 chain: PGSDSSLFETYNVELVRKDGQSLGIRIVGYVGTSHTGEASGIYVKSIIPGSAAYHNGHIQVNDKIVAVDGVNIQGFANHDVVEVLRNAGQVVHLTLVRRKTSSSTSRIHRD
Put plainly: G' assay.

Assay [12] concerns the target T11, GST-HEMBA 1003117 PDZ domain 1 (Homo sapiens (Human)), Q96JH8.
T11 chain: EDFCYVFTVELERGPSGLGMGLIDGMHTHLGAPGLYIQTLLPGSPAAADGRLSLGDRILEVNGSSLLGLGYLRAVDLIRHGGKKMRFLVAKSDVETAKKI
As to the kind of experiment: G' assay.

The target of assay [13] is T12, GST-MUPP1 PDZ domain 3 (Homo sapiens (Human)), O75970.
T12 chain: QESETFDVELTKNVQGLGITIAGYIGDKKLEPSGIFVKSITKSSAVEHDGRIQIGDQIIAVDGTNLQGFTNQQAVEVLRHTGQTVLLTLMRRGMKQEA
Put plainly: G' assay.

The target of assay [14] is T1, GST-MINT1 PDZ domains 1, 2, Q02410. As to the kind of experiment: G' assay.
Assay [15] deals with T2, GST-FLJ 10324 PDZ domain 1 [GST: P08515]. As to the kind of experiment: G' assay.
For assay [16], the target named is T13, GST-MUPP1 PDZ domain 7 (Homo sapiens (Human)), O75970.
T13 chain: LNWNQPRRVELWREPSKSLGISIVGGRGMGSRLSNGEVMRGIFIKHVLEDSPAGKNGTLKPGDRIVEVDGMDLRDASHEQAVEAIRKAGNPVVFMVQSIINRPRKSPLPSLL
Put plainly: G' assay.

The target in assay [17] is T14, GST-KIAA0807(S) PDZ domain 1 (Homo sapiens (Human)), Q6P0Q8.
T14 chain: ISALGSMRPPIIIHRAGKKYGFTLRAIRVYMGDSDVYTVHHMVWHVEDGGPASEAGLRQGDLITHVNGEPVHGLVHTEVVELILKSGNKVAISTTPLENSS
As to the kind of experiment: G' assay.

In assay [18] the target is T15, GST-PTPL1 PDZ domain 4 (Homo sapiens (Human)), Q12923.
T15 chain: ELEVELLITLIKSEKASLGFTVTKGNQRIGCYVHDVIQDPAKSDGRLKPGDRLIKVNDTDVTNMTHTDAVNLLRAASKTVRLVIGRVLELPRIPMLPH
Put plainly: G' assay.

Assay [19] has as its target GST-PAR3 PDZ domain 3 (Homo sapiens (Human)), Q8TEW0. As to the kind of experiment: G' assay. Also: key of the grades not given here.
In assay [20] the target is T16, GST-KIAA0751(L) PDZ domain 1 (Mus musculus (Mouse)), Q9EQZ7.
T16 chain: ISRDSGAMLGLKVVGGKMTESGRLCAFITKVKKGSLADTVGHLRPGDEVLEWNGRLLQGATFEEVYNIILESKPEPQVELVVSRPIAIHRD
Put plainly: G' assay.

Assay [21] concerns the target T17, GST-AIPC PDZ domain 4 (Homo sapiens (Human)), O15018.
T17 chain: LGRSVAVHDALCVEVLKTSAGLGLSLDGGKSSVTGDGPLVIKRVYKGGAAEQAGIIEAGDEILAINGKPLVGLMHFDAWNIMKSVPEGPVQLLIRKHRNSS
Put plainly: G' assay.

In assay [22] the target is T13, GST-MUPP1 PDZ domain 7 (Homo sapiens …). Put plainly: G assay titration, PDZ 5 ug/ml.
Assay [23] addresses T15, GST-PTPL1 PDZ domain 4 (Homo sapiens …). Put plainly: G assay titration, PDZ 3 ug/ml.
Assay [24] addresses T11, GST-HEMBA 1003117 PDZ domain 1 (Homo …). As to the kind of experiment: G assay titration, PDZ 0.5 ug/ml.
Assay [25] concerns the target GST-PAR3 PDZ domain 3 (Homo sapiens (Human)), Q8TEW0. As to the kind of experiment: G assay titration, PDZ 0.5 ug/ml.
Assay [26] deals with T18, GST-PTPL1 PDZ domain 2 (Homo sapiens (Human)), Q12923.
T18 chain: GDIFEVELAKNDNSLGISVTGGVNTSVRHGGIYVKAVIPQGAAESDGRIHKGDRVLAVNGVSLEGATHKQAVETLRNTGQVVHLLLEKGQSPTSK
Put plainly: G' assay.

Assay [27] deals with T19, GST-KIAA1634 PDZ domain 2 (Homo sapiens (Human)), Q5TCQ9.
T19 chain: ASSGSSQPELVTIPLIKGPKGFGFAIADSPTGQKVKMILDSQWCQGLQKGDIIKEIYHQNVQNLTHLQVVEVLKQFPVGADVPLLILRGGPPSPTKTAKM
As to the kind of experiment: G' assay.

For assay [28], the target named is T18, GST-PTPL1 PDZ domain 2 (Homo sapiens …). Put plainly: G assay titration, PDZ 5 ug/ml.
Assay [29] deals with T19, GST-KIAA1634 PDZ domain 2 (Homo sapiens …). As to the kind of experiment: G assay titration, PDZ 5 ug/ml.
In assay [30] the target is GST-PSD95 PDZ domains 1, 2, 3 (Homo sapiens), P78352. Put plainly: G assay competition vs 10 uM biotin-KV1.3 20-mer; competitor 100 uM.
Chain of GST-PSD95 PDZ domains 1, 2, 3 (Homo sapiens), P78352 (P78352 62-395): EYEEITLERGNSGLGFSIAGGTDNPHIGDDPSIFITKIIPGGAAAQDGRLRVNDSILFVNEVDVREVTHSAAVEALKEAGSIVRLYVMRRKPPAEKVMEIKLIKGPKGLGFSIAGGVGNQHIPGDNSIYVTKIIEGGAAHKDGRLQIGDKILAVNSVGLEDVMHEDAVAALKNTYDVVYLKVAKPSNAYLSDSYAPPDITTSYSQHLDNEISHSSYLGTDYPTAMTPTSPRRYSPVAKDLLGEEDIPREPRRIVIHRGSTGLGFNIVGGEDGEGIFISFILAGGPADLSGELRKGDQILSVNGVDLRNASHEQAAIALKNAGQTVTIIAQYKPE
The target is the same in assay [31]. As to the kind of experiment: G assay competition vs 20 uM biotin-CD46 20-mer; competitor 100 uM.
Assay [32] has the same target. As to the kind of experiment: G assay competition vs 10 uM biotin-CD95 20-mer; competitor 100 uM.
Assay [33] has the same target. As to the kind of experiment: G assay competition vs 20 uM biotin-CLASP-2 20-mer; competitor 100 uM.

Chain of GST-PAR3 PDZ domain 3 (Homo sapiens (Human)), Q8TEW0 (Q8TEW0 579-681): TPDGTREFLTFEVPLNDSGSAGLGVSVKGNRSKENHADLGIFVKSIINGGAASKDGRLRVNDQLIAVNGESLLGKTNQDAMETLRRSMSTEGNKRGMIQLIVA

As for STDNLVRPFMDTLASHQLYI (modifications not checked) [presenilin-2], the Kd was 6 µM in [1]; 1000 nM in assay [2]; 4 µM in [22]; 8 µM in assay [23]; 4 µM in [24]; 2000 nM in [25]. Also, the Classification in [3] was 1 A450 class; in [4], 3 A450 class; in assay [5] it was 1 A450 class; in assay [6] it was 1 A450 class; in assay [7] it was 1 A450 class; in assay [8], 3 A450 class. The Classification in assay [9] was 1 A450 class; in assay [10], 1 A450 class; in assay [11], 1 A450 class; in assay [12] it was 4 A450 class; in assay [13], 3 A450 class; in assay [14], 3 A450 class. Further, the Classification was 5 A450 class in assay [15]; 2 A450 class in assay [16]; 1 A450 class in [17]; 2 A450 class in assay [18]; 5 A450 class in assay [19]; 1 A450 class in assay [20]. Also, the Classification in [21] stood at 1 A450 class.
On to IVTVVTMVTNVDFPPKESSL (modifications not checked) [ActRIIA], for which the Classification in assay [26] was found to be 3 A450 class; in assay [27], 2 A450 class. The Kd in [28] and in assay [29] was 5 µM in each case.
Turning to REVKFTSL (modifications not checked) [CD46 8-mer], the % binding of labelled 20-mer in [30] was 71%; in assay [31], 95%; in assay [32], 65%; in [33] it was 81%.

As usually defined, the Kd is a measure of binding affinity in units of concentration.

The values are drawn from patent US20050282743A1, “Molecular interactions in cells” (Arbor Vita Corporation, priority 2001, published 2005).
